This note sets out measurements from patent US8440629B2, “Cyclic receptor-associated protein (RAP) peptides” (Raptor Pharmaceuticals Inc., priority 2007, dated 2013).

What all share (test): Solid phase binding assay
For one experiment, the target named is T1, LRP6 CR23 (Homo sapiens, UniProt O75581).
T1 construct: the two CR pairs from LRP6 within the triplet (CR1 and 2, termed CR12, CR2 and 3, termed CR23); made in house; host or cells: E. coli BL21(DE3) CodonPlus-RIPL, pET30(+)a
T1 sequence (O75581 1286-1363 limits assumed): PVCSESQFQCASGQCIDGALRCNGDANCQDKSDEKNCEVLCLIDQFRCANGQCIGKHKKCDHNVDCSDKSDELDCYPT
Conditions: highest ligand concentrations tested.

Another experiment deals with T2, LRP6 CR1-3 (Homo sapiens, UniProt O75581).
T2 construct: made in house; host or cells: E. coli BL21(DE3) CodonPlus-RIPL, pET30(+)a
T2 sequence (O75581 1247-1363): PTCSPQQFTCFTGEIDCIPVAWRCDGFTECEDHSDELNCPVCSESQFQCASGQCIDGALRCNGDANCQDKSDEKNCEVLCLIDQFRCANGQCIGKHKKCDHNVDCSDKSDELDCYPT
To be noted: highest ligand concentrations tested.

A further experiment has as its target T3, LRP6 CR12 (Homo sapiens, UniProt O75581).
T3 construct: LRP6 CR12 and LRP6 CR23, amino acids 1247-1322 and 1323-1363; made in house; host or cells: E. coli BL21(DE3) CodonPlus-RIPL, pET30(+)a
T3 sequence (O75581 1247-1322): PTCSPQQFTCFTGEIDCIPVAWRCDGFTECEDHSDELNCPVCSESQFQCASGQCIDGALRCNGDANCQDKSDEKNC
To be noted: highest ligand concentrations tested.

A further experiment addresses T4, MAT CR34 (Homo sapiens, UniProt Q9Y5Y6).
T4 construct: MAT CR34 (ST14 CR34), amino acids 525-602; made in house; host or cells: E. coli BL21(DE3) CodonPlus-RIPL, pET30(+)a
T4 sequence (Q9Y5Y6 525-602): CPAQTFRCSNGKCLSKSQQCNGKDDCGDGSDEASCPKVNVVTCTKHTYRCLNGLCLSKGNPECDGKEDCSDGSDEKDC
Conditions: separate set of experiments.

The target of a further experiment is T5, MAT CR23 (Homo sapiens, UniProt Q9Y5Y6).
T5 construct: made in house; host or cells: E. coli BL21(DE3) CodonPlus-RIPL, pET30(+)a
T5 sequence (Q9Y5Y6 487-566): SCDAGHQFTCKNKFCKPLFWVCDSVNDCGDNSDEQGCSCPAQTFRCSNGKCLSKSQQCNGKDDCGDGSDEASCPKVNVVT
To be noted: highest ligand concentrations tested.

The next experiment deals with T6, MAT CR12 (Homo sapiens, UniProt Q9Y5Y6).
T6 construct: termed MAT CR12 (ST14 CR12), amino acids 452-524; made in house; host or cells: E. coli BL21(DE3) CodonPlus-RIPL, pET30(+)a
T6 sequence (Q9Y5Y6 452-524): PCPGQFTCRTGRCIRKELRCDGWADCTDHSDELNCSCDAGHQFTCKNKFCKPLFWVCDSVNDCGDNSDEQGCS
Conditions: separate set of experiments.

A further experiment addresses T7, VLDLR CR78 (Homo sapiens, UniProt P98155).
T7 construct: a CR pair from VLDLR (CR78); made in house; host or cells: E. coli BL21(DE3) CodonPlus-RIPL, pET30(+)a
Conditions: highest ligand concentrations tested.

B1: RAP d3: third domain of human RAP, amino acids 201-319 of mature RAP, bacterially expressed with hexahistidine and S-peptide tags (SEQ ID NO: 92) (protein, listed as Homo sapiens)
chain: LDRLRRVSHQGYSTEAEFEEPRVIDLWDLEQSANLTDKELEAFREELKHFEAKIEKHNHYQKQLEIAHEKLRHAESVGDGERVSRSREKHALLEGRTKELGYTVKKHLQDLSGRISRAR
modifications: hexahistidine and S-peptide tags
As for B1, the “binding relative to that for LRP1 CR3-5” value in the experiment with LRP6 CR23, with LRP6 CR1-3, with LRP6 CR12, in the experiment with MAT CR23 and in the experiment with VLDLR CR78 was “less than 5%” throughout. The “binding (in words)” value with MAT CR34 and in the experiment with MAT CR12 was “undetectable” throughout.
